Test [1] addresses recombinant birch pollen allergen Bet v 1 (Betula verrucosa) (UniProt P15494). Kind of test: ELISA, IgE of non-allergic control serum on rBet v 1. (ELISA stands for enzyme-linked immunosorbent assay.)
Test [2] has the same target. The test is described as above. This is another data set of the same source.
The target is the same in test [3]. Kind of test: ELISA, IgE of control serum on rBet v 1 after clone 2.
Test [4] has the same target. Kind of test: ELISA, IgE of control serum on rBet v 1 after clone 4.
Test [5] shares this target. Kind of test: ELISA, IgE of control serum on rBet v 1 after clone 2. The source holds these as a separate data set.
Test [6] shares this target. The test is described as follows: ELISA, IgE of control serum on rBet v 1 after clone 4. The source holds these as a separate data set.
Test [7] has the same target. The test is described as follows: ELISA, IgE of control serum on rBet v 1 after clone 10.
The target is the same in test [8]. Kind of test: ELISA, IgE of control serum on rBet v 1 after clone 12.
Test [9] shares this target. Kind of test: ELISA, IgE of control serum on rBet v 1 after clone 13.
The target is the same in test [10]. The test is described as follows: ELISA, IgE of control serum on rBet v 1 after clone 10. This is another data set of the same source.
Test [11] has the same target. The test is described as follows: ELISA, IgE of control serum on rBet v 1 after clone 12. The source holds these as a separate data set.
For test [12] the target is unchanged. Kind of test: ELISA, IgE of control serum on rBet v 1 after clone 13. The source holds these as a separate data set.

Read-outs that look alike come from different tables or passages of the source.

Sequence of UniProt P15494 (P15494 2-160 limits assumed): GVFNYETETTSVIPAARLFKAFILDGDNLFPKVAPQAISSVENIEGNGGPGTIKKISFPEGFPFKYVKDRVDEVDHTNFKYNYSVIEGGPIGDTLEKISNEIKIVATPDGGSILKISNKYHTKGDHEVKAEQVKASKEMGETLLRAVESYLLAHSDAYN

For “serum from a non-allergic person (antibody)”, the results for the OD without mAb in test [1] and in [2] were 0.06 OD and 0.03 OD, respectively. Further, the OD with mAb worked out at 0.09 OD in test [3]; 0.09 OD in [4]; 0.03 OD in test [5]; 0.04 OD in [6]; 0.09 OD in test [7]; 0.14 OD in test [8]. For the same substance, the OD with mAb stood at 0.15 OD in [9], 0.03 OD in test [10], 0.04 OD in test [11] and 0.08 OD in [12].

Values taken from patent US20100034812A1.
